Reference: paper PMC3379838

What was measured:
[1] = substrate: O=C(Cn1ccnc1[N+](=O)[O-])NCc1ccccc1; assay: purified protein; format: biochemical, Trypanosoma cruzi; details: 100 μM NADH fixed; benznidazole 10–100 μM
[2] = substrate: CC1CS(=O)(=O)CCN1/N=C/c1ccc([N+](=O)[O-])o1; assay: purified protein; format: biochemical, Trypanosoma cruzi; details: 100 μM NADH fixed

B1: TcNTR (61S, catalytic domain) (Trypanosoma cruzi strain CL Brener) (protein)
chain: LDAMKRVVHERRSCKRFDPTKSIDLDVVSDLLAMTVRAPTALNLQPWVAVVIHEEEQRETLSRAALGQPQPRDAPVTVVFAGDMEPESNAPAALEMGLESGYYHSLYGAAYLRHAYYLLHGGPCEVMSHVKAIVSAWYSESTGNAMLSVPRNKQAYAWKQVMIPATTFLYLATAAGFDTAILEGFDEAQVRRVAGLPPRFTVPVIISVGHGAKNGFHSVRSPRFPTKHLVRWGKF
In the case of B1, the Km [1] is reported as 28.0 ± 2.7 µM and the Km [2] is reported as 15.5 ± 3.5 µM.
